Experimental data reported in PMC2172930.

Biological target: p85, the regulatory subunit of PI3-kinase (mouse (endogenous in NIH3T3)) (UniProt P26450)
Test: co-IP

Sequence of UniProt P26450 (P26450 whole entry): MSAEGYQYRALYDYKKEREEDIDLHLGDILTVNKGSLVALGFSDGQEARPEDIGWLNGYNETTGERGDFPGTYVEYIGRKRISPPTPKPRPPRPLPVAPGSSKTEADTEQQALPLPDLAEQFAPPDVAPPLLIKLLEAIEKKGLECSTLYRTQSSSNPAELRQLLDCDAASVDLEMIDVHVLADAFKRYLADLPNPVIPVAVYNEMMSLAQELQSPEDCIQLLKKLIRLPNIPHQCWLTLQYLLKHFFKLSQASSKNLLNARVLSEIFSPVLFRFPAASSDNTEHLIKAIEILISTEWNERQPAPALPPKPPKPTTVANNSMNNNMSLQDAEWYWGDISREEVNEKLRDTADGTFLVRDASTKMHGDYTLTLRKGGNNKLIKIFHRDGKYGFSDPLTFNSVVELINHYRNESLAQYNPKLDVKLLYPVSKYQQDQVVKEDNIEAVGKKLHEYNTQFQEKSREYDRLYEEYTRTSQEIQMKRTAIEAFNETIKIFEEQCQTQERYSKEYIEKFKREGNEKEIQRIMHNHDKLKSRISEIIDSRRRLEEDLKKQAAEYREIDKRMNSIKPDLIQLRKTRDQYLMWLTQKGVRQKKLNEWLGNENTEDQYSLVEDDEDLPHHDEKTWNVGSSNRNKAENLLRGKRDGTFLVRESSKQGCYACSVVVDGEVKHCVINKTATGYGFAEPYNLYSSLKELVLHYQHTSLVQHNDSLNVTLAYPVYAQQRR

In the case of “androgen receptor (110-kD classical murine AR of NIH3T3 cells) (from UniProt P19091 1-899)”, the increase of AR/p85 association on 0.001 nM R1881 against unstimulated cells is reported as 38%.
